{"source": "paper PMC3877065", "about": "“Ligand Recognition by the TPR Domain of the Import Factor Toc64 from Arabidopsis thaliana” (PLoS ONE, 2013)", "key": {"[1]": {"target": "T1, TPR domain of AtToc64 (AtToc64_TPR-H6) (Arabidopsis thaliana, UniProt Q9LVH5)", "T1 construct": "The region encompassing the TPR domain of AtToc64 was composed of residues 474–589; made in house; host or cells: E. coli BL21(DE3)", "test": "biochemical", "format": "binding", "experimental": "Peptides were dissolved in the superdex buffer at 6–14 mM concentration and 302 µL were titrated against 1.4 ml of protein at 0.1–0.3 mM in a VP-ITC Microcal Instrument (GE Healthcare). Titrations were carried out at 20°C using 30 injections of 10 µL each injected at interval of 200 seconds. Injections were continued beyond saturation levels to allow determination of the heats of ligand dilution. The non-linear least square curve-fitting algorithm (Microcal Origin) was used for data fitting. After subtraction of the heat of dilution, three floating variables: stoichiometry (N), binding constant (Kd) and change in enthalpy of interaction (ΔH) were obtained. For subsequent alanine scan experiments the stoichiometry was fixed at N = 1."}, "[2]": {"target": "TPR domain of AtToc64 with a C-terminal hexa-histidine tag (AtToc64_TPR-H6) (Arabidopsis thaliana) (UniProt Q9LVH5)", "test": "ITC; peptide (6-14 mM) titrated into AtToc64_TPR-H6 (0.1-0.3 mM) in the cell, VP-ITC, 20°C, 25 mM Hepes, 100 mM KCl, pH 7.3; 1:1 model, stoichiometry fixed at N = 1 for the alanine scan"}, "[3]": {"target": "T2, TPR domain of AtToc64 with a C-terminal hexa-histidine tag (AtToc64_TPR-H6) (Arabidopsis thaliana, UniProt Q9LVH5 474-589)", "T2 chain": "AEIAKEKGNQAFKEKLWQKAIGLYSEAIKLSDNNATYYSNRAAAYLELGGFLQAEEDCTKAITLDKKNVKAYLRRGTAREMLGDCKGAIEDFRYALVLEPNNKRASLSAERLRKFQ", "test": "ITC"}, "[4]": {"target": "T3, TPR domain of AtToc64 with a C-terminal hexa-histidine tag (AtToc64_TPR-H6) (Arabidopsis thaliana, UniProt Q9LVH5 474-589)", "T3 construct": "Toc64 (AtToc64) from Arabidopsis thaliana, TPR domain, residues 474-589 of the full-length protein (NP_188424, At3g17970); Cloned with NcoI/XhoI into pETM10; also called TPR domain of Toc64 from Arabidopsis thaliana; source: E. coli BL21(DE3), purified (Ni-NTA, size exclusion chromatography); not shown: His6, C-terminal, kept", "T3 sequence (looked up)": "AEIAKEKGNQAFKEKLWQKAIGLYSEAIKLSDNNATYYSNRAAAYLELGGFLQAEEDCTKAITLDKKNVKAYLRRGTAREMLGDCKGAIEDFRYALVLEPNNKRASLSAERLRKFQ", "test": "ITC; peptide (6-14 mM) titrated into 1.4 ml of protein (0.1-0.3 mM) in the cell; 20°C; 25 mM Hepes, 100 mM KCl, pH 7.3; 30 injections of 10 µL; 1:1 binding model with N, Kd and ΔH floating", "conditions": "both partners purified"}, "[5]": {"target": "T3, TPR domain of AtToc64 with a C-terminal …", "test": "ITC; peptide (6-14 mM) titrated into 1.4 ml of protein (0.1-0.3 mM) in the cell; 20°C; 25 mM Hepes, 100 mM KCl, pH 7.3; 30 injections of 10 µL; 1:1 binding model with N, Kd and ΔH floating", "conditions": "both partners purified", "remark": "listed apart in the source"}, "[6]": {"conditions": "ITC alanine scanning, Table S1, stoichiometry fixed at N = 1, 20°C"}, "[7]": {"conditions": "ITC, Figure 4, alanine scanning of octapeptides, stoichiometry fixed at N = 1 for alanine scan, 20°C"}}, "note": "Like-named read-outs stand apart in the source and are kept apart here. Where no end group is shown, it is not given here."}
{"molecule": "CC[C@H](C)[C@H](N)C(=O)N[C@@H](CCC(=O)O)C(=O)N[C@@H](CCC(=O)O)C(=O)N[C@H](C(=O)N[C@@H](CC(=O)O)C(=O)O)C(C)C", "note": "[IEEVD]", "values": [{"measurement": "Kd", "setting": "[1]", "result": 568, "unit": "µM"}]}
{"molecule": "CSCC[C@H](N)C(=O)N[C@@H](CCC(=O)O)C(=O)N[C@@H](CCC(=O)O)C(=O)N[C@H](C(=O)N[C@@H](CC(=O)O)C(=O)O)C(C)C", "note": "[MEEVD]", "values": [{"measurement": "Kd", "setting": "[1]", "result": 800, "unit": "µM"}]}
{"molecule": "GPTAEEVD [GPTAEEVD]", "values": [{"measurement": "Kd", "setting": "[1]", "result": 4650, "unit": "µM"}]}
{"molecule": "GPTIEAVD [Ala-substituted Hsp70 octapeptide]", "values": [{"measurement": "Kd", "setting": "[1]; [6]", "result": "No binding"}]}
{"molecule": "GPTIEEAD [Ala-substituted Hsp70 octapeptide]", "values": [{"measurement": "Kd", "setting": "[1]; [6]", "result": "No binding"}]}
{"molecule": "GPTIEEVA [Ala-substituted Hsp70 octapeptide]", "values": [{"measurement": "Kd", "setting": "[1]; [6]", "result": "No binding"}]}
{"molecule": "GPTIEEVD [GPTIEEVD]", "values": [{"measurement": "Kd", "setting": "[1]", "result": 230, "unit": "µM"}]}
{"molecule": "Hsp70 C-terminal octapeptide, alanine mutant APTIEEVD", "values": [{"measurement": "Kd", "setting": "[2]", "result": 740, "unit": "µM"}, {"measurement": "stoichiometry N", "setting": "[2]", "result": 1}]}
{"molecule": "Hsp70 C-terminal octapeptide, alanine mutant GATIEEVD", "values": [{"measurement": "Kd", "setting": "[2]", "result": 657, "unit": "µM"}, {"measurement": "stoichiometry N", "setting": "[2]", "result": 1}]}
{"molecule": "Hsp70 C-terminal octapeptide, alanine mutant GPAIEEVD", "values": [{"measurement": "Kd", "setting": "[2]", "result": 769, "unit": "µM"}, {"measurement": "stoichiometry N", "setting": "[2]", "result": 1}]}
{"molecule": "Hsp70 C-terminal octapeptide, alanine mutant GPTAEEVD", "values": [{"measurement": "stoichiometry N", "setting": "[2]", "result": 1}]}
{"molecule": "Hsp90 C-terminal octapeptide, alanine mutant ASRMEEVD", "values": [{"measurement": "Kd", "setting": "[2]", "result": 854, "unit": "µM"}, {"measurement": "stoichiometry N", "setting": "[2]", "result": 1}]}
{"molecule": "Hsp90 C-terminal octapeptide, alanine mutant TARMEEVD", "values": [{"measurement": "Kd", "setting": "[2]", "result": 344, "unit": "µM"}, {"measurement": "stoichiometry N", "setting": "[2]", "result": 1}]}
{"molecule": "Hsp90 C-terminal octapeptide, alanine mutant TSAMEEVD", "values": [{"measurement": "Kd", "setting": "[2]", "result": 100, "unit": "µM"}, {"measurement": "stoichiometry N", "setting": "[2]", "result": 1}]}
{"molecule": "Hsp90 C-terminal octapeptide, alanine mutant TSRAEEVD", "values": [{"measurement": "Kd", "setting": "[2]", "result": 1080, "unit": "µM"}, {"measurement": "stoichiometry N", "setting": "[2]", "result": 1}]}
{"molecule": "Hsp90 C-terminal octapeptide, alanine mutant TSRMEAVD", "values": [{"measurement": "stoichiometry N", "setting": "[2]", "result": 1}]}
{"molecule": "Hsp90 C-terminal octapeptide, alanine mutant TSRMEEVA", "values": [{"measurement": "stoichiometry N", "setting": "[2]", "result": 1}]}
{"molecule": "TSRMAEVD [Ala-substituted Hsp90 octapeptide]", "values": [{"measurement": "Kd", "setting": "[1]; [6]", "result": "No binding*"}, {"measurement": "Kd", "setting": "[1]; [7]", "result": "No binding"}]}
{"molecule": "TSRMEAVD [TSRMEAVD]", "values": [{"measurement": "Kd", "setting": "[1]", "result": 1910, "unit": "µM"}]}
{"molecule": "TSRMEEAD [Ala-substituted Hsp90 octapeptide]", "values": [{"measurement": "Kd", "setting": "[1]; [7]", "result": "No binding"}]}
{"molecule": "TSRMEEVA [TSRMEEVA]", "values": [{"measurement": "Kd", "setting": "[1]", "result": 1400, "unit": "µM"}]}
{"molecule": "TSRMEEVD [TSRMEEVD]", "values": [{"measurement": "Kd", "setting": "[1]", "result": 218, "unit": "µM"}]}
{"molecule": "GPTAEEVD", "note": "[Hsp70 C-terminal octapeptide, Ile120 to Ala (GPTAEEVD)]", "values": [{"measurement": "Kd", "setting": "[3]", "result": 4600, "unit": "µM"}]}
{"molecule": "IEEVD (C-terminal pentapeptide of Hsp70; also called C70_C5; Hsp70 pentapeptide; source: synthetic peptide (Biomatik, >85% purity))", "note": "[C-terminal pentapeptide of Hsp70, Hsp70_C5 (IEEVD)]", "values": [{"measurement": "stoichiometry N", "setting": "[4]", "result": 1.2}, {"measurement": "dH", "setting": "[5]", "result": -6.82, "unit": "kJ/mol"}, {"measurement": "stoichiometry N", "setting": "[5]", "result": 0.93}]}
{"molecule": "MEEVD (C-terminal pentapeptide of Hsp90; also called C90_C5; Hsp90 pentapeptide; source: synthetic peptide (Biomatik, >85% purity))", "note": "[C-terminal pentapeptide of Hsp90, Hsp90_C5 (MEEVD)]", "values": [{"measurement": "dH", "setting": "[5]", "result": -11.2, "unit": "kJ/mol"}, {"measurement": "stoichiometry N", "setting": "[5]", "result": 1.04}]}
{"molecule": "TSRAEEVD", "note": "[Hsp90 C-terminal octapeptide, Met120 to Ala (TSRAEEVD)]", "values": [{"measurement": "Kd", "setting": "[3]", "result": 1080, "unit": "µM"}]}
{"molecule": "TSRMEAVD", "note": "[Hsp90 C-terminal octapeptide, Glu122 to Ala (TSRMEAVD)]", "values": [{"measurement": "Kd", "setting": "[3]", "result": 1900, "unit": "µM"}]}
{"molecule": "TSAMEEVD", "note": "[Hsp90 C-terminal octapeptide, Arg119 to Ala (TSAMEEVD)]", "values": [{"measurement": "Kd", "setting": "[3]", "result": 100, "unit": "µM"}]}
{"molecule": "GATIEEVD", "note": "[Hsp70 C-terminal octapeptide, Pro118 to Ala (GATIEEVD)]", "values": [{"measurement": "Kd", "setting": "[3]", "result": 657, "unit": "µM"}]}
{"molecule": "ASRMEEVD", "note": "[Hsp90 C-terminal octapeptide, Thr117 to Ala]", "values": [{"measurement": "Kd", "setting": "[3]", "result": 854, "unit": "µM"}]}
{"molecule": "APTIEEVD", "note": "[Hsp70 C-terminal octapeptide, Gly117 to Ala]", "values": [{"measurement": "Kd", "setting": "[3]", "result": 740, "unit": "µM"}]}
{"molecule": "TSRMEEVA", "note": "[Hsp90 C-terminal octapeptide, Asp124 to Ala]", "values": [{"measurement": "Kd", "setting": "[3]", "result": 1400, "unit": "µM"}]}
{"molecule": "GPTIEEVD (C-terminal octapeptide of Hsp70; also called Hsp70 octapeptide; C70_C8; source: synthetic peptide (Biomatik, >85% purity))", "note": "[C-terminal octapeptide of Hsp70 (GPTIEEVD)]", "values": [{"measurement": "dH", "setting": "[5]", "result": -4.18, "unit": "kJ/mol"}, {"measurement": "stoichiometry N", "setting": "[5]", "result": 1.2}]}
{"molecule": "TARMEEVD", "note": "[Hsp90 C-terminal octapeptide, Ser118 to Ala (TARMEEVD)]", "values": [{"measurement": "Kd", "setting": "[3]", "result": 344, "unit": "µM"}]}
{"molecule": "GPAIEEVD", "note": "[Hsp70 C-terminal octapeptide, Thr119 to Ala (GPAIEEVD)]", "values": [{"measurement": "Kd", "setting": "[3]", "result": 769, "unit": "µM"}]}
{"molecule": "TSRMEEVD (C-terminal octapeptide of Hsp90; also called Hsp90 octapeptide; C90_C8; source: synthetic peptide (Biomatik, >85% purity))", "note": "[C-terminal octapeptide of Hsp90 (TSRMEEVD)]", "values": [{"measurement": "dH", "setting": "[5]", "result": -25.9, "unit": "kJ/mol"}, {"measurement": "stoichiometry N", "setting": "[5]", "result": 0.94}]}
